# Assays:
# [1] = target: T1, MotA E153A (Enterobacteria phage T4, UniProt P22915 1-211, E153A); assay: EMSA; no difference; data not shown; EMSA: 0.01 pmol 32P-DNA, 1.7 pmol MotA, native 12% PAGE in 1x TBE at 4 C, other conditions as in ref 14; SPR: biotin-DNA on neutravidin chip, buffer as in ref 2
# T1 sequence: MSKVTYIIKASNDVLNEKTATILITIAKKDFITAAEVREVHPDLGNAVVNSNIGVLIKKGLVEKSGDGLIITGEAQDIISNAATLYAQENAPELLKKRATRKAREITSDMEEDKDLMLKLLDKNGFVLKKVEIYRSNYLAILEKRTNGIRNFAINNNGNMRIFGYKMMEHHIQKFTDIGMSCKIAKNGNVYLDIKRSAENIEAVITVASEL
# [2] = target: T2, MotA Y134A (Enterobacteria phage T4, UniProt P22915 1-211, Y134A); assay: EMSA; similar to wt; EMSA: 0.01 pmol 32P-DNA, 1.7 pmol MotA, native 12% PAGE in 1x TBE at 4 C, other conditions as in ref 14; SPR: biotin-DNA on neutravidin chip, buffer as in ref 2
# T2 sequence: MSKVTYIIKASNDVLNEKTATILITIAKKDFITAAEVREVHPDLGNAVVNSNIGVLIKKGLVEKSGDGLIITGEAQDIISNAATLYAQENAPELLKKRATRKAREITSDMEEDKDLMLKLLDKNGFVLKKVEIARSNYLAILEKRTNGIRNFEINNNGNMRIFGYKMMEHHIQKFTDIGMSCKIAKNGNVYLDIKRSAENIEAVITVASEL
# [3] = target: T1, MotA E153A; assay: EMSA; slightly tighter than wt; EMSA: 0.01 pmol 32P-DNA, 1.7 pmol MotA, native 12% PAGE in 1x TBE at 4 C, other conditions as in ref 14; SPR: biotin-DNA on neutravidin chip, buffer as in ref 2
Binder,binding result [1],binding result [2],binding result [3]
"EMSA 19-mer GHMe/unmod (dsDNA, beta-D-glucosyl-5-hydroxymethyl-dC at top C10) DNA 1: AATTATTTGCTTTAGATTA DNA 2: TAATCTAAAGCAAATAATT",binds,,
EMSA 19-mer unmodified (dsDNA) DNA 1: AATTATTTGCTTTAGATTA DNA 2: TAATCTAAAGCAAATAATT,,binds,binds

# Reference: PMC6007404 (Nucleic Acids Research, 2018)
